Target: fetuin
Assay: ELISA on coated fetuin, OS-PT at 20 µg/ml, detection with anti-PT serum

Work on “OS-PT conjugate: B. pertussis 186 LOS-derived oligosaccharide coupled to pertussis toxin by reductive amination (oligosaccharide content not specified at the place) (from UniProt P04977 35-269; P04978 28-226; P04979 29-227; P0A3R5 43-152; P04981 35-133)” yielded an absorbance at A405 nm of 0.117 A405 nm.

Reference: patent US9878051
